Measured values taken from patent US20210246166A1 (Bayer, published 2021).
Numbered stars: 1 amine (or outer) side, 2 acyl side, 3 side chain; on linkers, the order of the positions; unused ones are H or OH. Bridge positions count the residues as written; N and C are the ends. Square brackets hold non-standard residues; d marks the D form. Primed or numbered codes have the meaning given here. Ends that are not written are not given here. * marks the point of attachment. X12 = (S)‑(trifluoromethyl)‑L‑cysteine, O=C([C@H](CSC(F)(F)F)N[*:1])[*:2]; Tranexamic″ = tranexamic acid, NC[C@H]1CC[C@@H](C(=O)*)CC1; Oic = O=C(O)[C@@H]1C[C@@H]2CCCC[C@@H]2N1; Nva(3-Et) = CCC(CC)[C@H](N)C(=O)O; tBuAla = CC(C)(C)C[C@H](N)C(=O)O; 4Pal = N[C@@H](Cc1ccncc1)C(=O)O; Gly(cBu) = N[C@H](C(=O)O)C1CCC1; Chg = N[C@H](C(=O)O)C1CCCCC1; Pen = CC(C)(S)[C@H](N)C(=O)O; 3Amb = NCc1cccc(C(=O)O)c1; NMeC = CN[C@@H](CS)C(=O)O; Nva = CCC[C@H](N)C(=O)O; PEG2 = NCCOCCOCCC(=O)O; Sar = CNCC(=O)O

B1: GIC+SRS-((tBu)A)-P-(Oic)-I-((N-Me)C)+IPD-NH2 (peptide)
peptide: GICSRS[tBuAla]P[Oic]I[NMeC]IPD-NH2
modifications: disulfide 3-11; N-terminus assumed
SMILES: CC[C@H](C)[C@H](NC(=O)CN)C(=O)N[C@H]1CSSC[C@@H](C(=O)N[C@H](C(=O)N2CCC[C@H]2C(=O)N[C@@H](CC(=O)O)C(N)=O)[C@@H](C)CC)N(C)C(=O)[C@H]([C@@H](C)CC)NC(=O)[C@@H]2C[C@@H]3CCCC[C@@H]3N2C(=O)[C@@H]2CCCN2C(=O)[C@H](CC(C)(C)C)NC(=O)[C@H](CO)NC(=O)[C@H](CCCNC(=N)N)NC(=O)[C@H](CO)NC1=O
B2: ((N-Me)G)-GIC+SRS-((tBu)A)-PPI-(Pen)+IPD-NH2 (peptide)
peptide: [Sar]GICSRS[tBuAla]PPI[Pen]IPD-NH2
modifications: disulfide 4-12; N-terminus assumed
SMILES: CC[C@H](C)[C@H](NC(=O)CNC(=O)CNC)C(=O)N[C@H]1CSSC(C)(C)[C@@H](C(=O)N[C@H](C(=O)N2CCC[C@H]2C(=O)N[C@@H](CC(=O)O)C(N)=O)[C@@H](C)CC)NC(=O)[C@H]([C@@H](C)CC)NC(=O)[C@@H]2CCCN2C(=O)[C@@H]2CCCN2C(=O)[C@H](CC(C)(C)C)NC(=O)[C@H](CO)NC(=O)[C@H](CCCNC(=N)N)NC(=O)[C@H](CO)NC1=O
B3: AIC+SRS-((tBu)A)-PPIC+IDD-OH (peptide)
peptide: AICSRS[tBuAla]PPICIDD-OH
modifications: disulfide 3-11; N-terminus assumed
SMILES: CC[C@H](C)[C@H](NC(=O)[C@H](C)N)C(=O)N[C@H]1CSSC[C@@H](C(=O)N[C@H](C(=O)N[C@@H](CC(=O)O)C(=O)N[C@@H](CC(=O)O)C(=O)O)[C@@H](C)CC)NC(=O)[C@H]([C@@H](C)CC)NC(=O)[C@@H]2CCCN2C(=O)[C@@H]2CCCN2C(=O)[C@H](CC(C)(C)C)NC(=O)[C@H](CO)NC(=O)[C@H](CCCNC(=N)N)NC(=O)[C@H](CO)NC1=O
B4: FIC+SRS-((tBu)A)-PPI-(Pen)+IPD-NH2 (peptide)
peptide: FICSRS[tBuAla]PPI[Pen]IPD-NH2
modifications: disulfide 3-11; N-terminus assumed
SMILES: CC[C@H](C)[C@H](NC(=O)[C@@H](N)Cc1ccccc1)C(=O)N[C@H]1CSSC(C)(C)[C@@H](C(=O)N[C@H](C(=O)N2CCC[C@H]2C(=O)N[C@@H](CC(=O)O)C(N)=O)[C@@H](C)CC)NC(=O)[C@H]([C@@H](C)CC)NC(=O)[C@@H]2CCCN2C(=O)[C@@H]2CCCN2C(=O)[C@H](CC(C)(C)C)NC(=O)[C@H](CO)NC(=O)[C@H](CCCNC(=N)N)NC(=O)[C@H](CO)NC1=O
B5: AIC+SRSLPP-(Chg)-C+IPD-OH (peptide)
peptide: AICSRSLPP[Chg]CIPD-OH
modifications: disulfide 3-11; N-terminus assumed
SMILES: CC[C@H](C)[C@H](NC(=O)[C@H](C)N)C(=O)N[C@H]1CSSC[C@@H](C(=O)N[C@H](C(=O)N2CCC[C@H]2C(=O)N[C@@H](CC(=O)O)C(=O)O)[C@@H](C)CC)NC(=O)[C@H](C2CCCCC2)NC(=O)[C@@H]2CCCN2C(=O)[C@@H]2CCCN2C(=O)[C@H](CC(C)C)NC(=O)[C@H](CO)NC(=O)[C@H](CCCNC(=N)N)NC(=O)[C@H](CO)NC1=O
B6: AIC+SRSLPP-((S)-2-amino-3-ethyl-pentanoic acid)-C+IPD-NH2 (peptide)
peptide: AICSRSLPP[Nva(3-Et)]CIPD-NH2
modifications: disulfide 3-11; N-terminus assumed
SMILES: CCC(CC)[C@@H]1NC(=O)[C@@H]2CCCN2C(=O)[C@@H]2CCCN2C(=O)[C@H](CC(C)C)NC(=O)[C@H](CO)NC(=O)[C@H](CCCNC(=N)N)NC(=O)[C@H](CO)NC(=O)[C@@H](NC(=O)[C@@H](NC(=O)[C@H](C)N)[C@@H](C)CC)CSSC[C@@H](C(=O)N[C@H](C(=O)N2CCC[C@H]2C(=O)N[C@@H](CC(=O)O)C(N)=O)[C@@H](C)CC)NC1=O
B7: (Nva)-IC+SRSLPPIC+IPD-NH2 (peptide)
peptide: [Nva]ICSRSLPPICIPD-NH2
modifications: disulfide 3-11; N-terminus assumed
SMILES: CCC[C@H](N)C(=O)N[C@H](C(=O)N[C@H]1CSSC[C@@H](C(=O)N[C@H](C(=O)N2CCC[C@H]2C(=O)N[C@@H](CC(=O)O)C(N)=O)[C@@H](C)CC)NC(=O)[C@H]([C@@H](C)CC)NC(=O)[C@@H]2CCCN2C(=O)[C@@H]2CCCN2C(=O)[C@H](CC(C)C)NC(=O)[C@H](CO)NC(=O)[C@H](CCCNC(=N)N)NC(=O)[C@H](CO)NC1=O)[C@@H](C)CC
B8: WIC+SRS-((tBu)A)-PPI-((N-Me)C)+I-NH2 (peptide)
peptide: WICSRS[tBuAla]PPI[NMeC]I-NH2
modifications: disulfide 3-11; N-terminus assumed
SMILES: CC[C@H](C)[C@H](NC(=O)[C@@H]1CSSC[C@H](NC(=O)[C@@H](NC(=O)[C@@H](N)Cc2c[nH]c3ccccc23)[C@@H](C)CC)C(=O)N[C@@H](CO)C(=O)N[C@@H](CCCNC(=N)N)C(=O)N[C@@H](CO)C(=O)N[C@@H](CC(C)(C)C)C(=O)N2CCC[C@H]2C(=O)N2CCC[C@H]2C(=O)N[C@@H]([C@@H](C)CC)C(=O)N1C)C(N)=O
B9: ((N-Me)G)-IC+SRS-((S)-(trifluoromethyl)-L-cysteine)-PPI-(Pen)+IP-NH2 (peptide)
peptide: [Sar]ICSRS[X12]PPI[Pen]IP-NH2
modifications: disulfide 3-11; N-terminus assumed
SMILES: CC[C@H](C)[C@H](NC(=O)CNC)C(=O)N[C@H]1CSSC(C)(C)[C@@H](C(=O)N[C@H](C(=O)N2CCC[C@H]2C(N)=O)[C@@H](C)CC)NC(=O)[C@H]([C@@H](C)CC)NC(=O)[C@@H]2CCCN2C(=O)[C@@H]2CCCN2C(=O)[C@H](CSC(F)(F)F)NC(=O)[C@H](CO)NC(=O)[C@H](CCCNC(=N)N)NC(=O)[C@H](CO)NC1=O
B10: AIC+SRSLPPIC+(Cbg)-PD-NH2 (peptide)
peptide: AICSRSLPPIC[Gly(cBu)]PD-NH2
modifications: disulfide 3-11; N-terminus assumed
SMILES: CC[C@H](C)[C@H](NC(=O)[C@H](C)N)C(=O)N[C@H]1CSSC[C@@H](C(=O)N[C@H](C(=O)N2CCC[C@H]2C(=O)N[C@@H](CC(=O)O)C(N)=O)C2CCC2)NC(=O)[C@H]([C@@H](C)CC)NC(=O)[C@@H]2CCCN2C(=O)[C@@H]2CCCN2C(=O)[C@H](CC(C)C)NC(=O)[C@H](CO)NC(=O)[C@H](CCCNC(=N)N)NC(=O)[C@H](CO)NC1=O
B11: (Tranexamic)-IC+SRS-((tBu)A)-PPI-(Pen)+IP-(PEG1(10 atoms))-NH2 (peptide)
peptide: {Tranexamic″}-ICSRS[tBuAla]PPI[Pen]IP-{PEG2-NH2}
modifications: disulfide 2-10
SMILES: CC[C@H](C)[C@@H]1NC(=O)[C@@H]2CCCN2C(=O)[C@@H]2CCCN2C(=O)[C@H](CC(C)(C)C)NC(=O)[C@H](CO)NC(=O)[C@H](CCCNC(=N)N)NC(=O)[C@H](CO)NC(=O)[C@@H](NC(=O)[C@@H](NC(=O)[C@H]2CC[C@@H](CN)CC2)[C@@H](C)CC)CSSC(C)(C)[C@@H](C(=O)N[C@H](C(=O)N2CCC[C@H]2C(=O)NCCOCCOCCC(N)=O)[C@@H](C)CC)NC1=O
B12: (4-Pal)-IC+SRS-((tBu)A)-PPI-(Pen)+IPD-NH2 (peptide)
peptide: [4Pal]ICSRS[tBuAla]PPI[Pen]IPD-NH2
modifications: disulfide 3-11; N-terminus assumed
SMILES: CC[C@H](C)[C@H](NC(=O)[C@@H](N)Cc1ccncc1)C(=O)N[C@H]1CSSC(C)(C)[C@@H](C(=O)N[C@H](C(=O)N2CCC[C@H]2C(=O)N[C@@H](CC(=O)O)C(N)=O)[C@@H](C)CC)NC(=O)[C@H]([C@@H](C)CC)NC(=O)[C@@H]2CCCN2C(=O)[C@@H]2CCCN2C(=O)[C@H](CC(C)(C)C)NC(=O)[C@H](CO)NC(=O)[C@H](CCCNC(=N)N)NC(=O)[C@H](CO)NC1=O
B13: (3-(Aminomethyl)benzoic acid)-IC+SRS-((tBu)A)-PP-(Pen)+IP-NH2 (peptide)
peptide: [3Amb]ICSRS[tBuAla]PP[Pen]IP-NH2
modifications: disulfide 3-10; N-terminus assumed
SMILES: CC[C@H](C)[C@H](NC(=O)c1cccc(CN)c1)C(=O)N[C@H]1CSSC(C)(C)[C@@H](C(=O)N[C@H](C(=O)N2CCC[C@H]2C(N)=O)[C@@H](C)CC)NC(=O)[C@@H]2CCCN2C(=O)[C@@H]2CCCN2C(=O)[C@H](CC(C)(C)C)NC(=O)[C@H](CO)NC(=O)[C@H](CCCNC(=N)N)NC(=O)[C@H](CO)NC1=O
B14: ((N-Me)G)-IC+SRSLP-(Oic)-I-(Pen)+IPE-OH (peptide)
peptide: [Sar]ICSRSLP[Oic]I[Pen]IPE-OH
modifications: disulfide 3-11; N-terminus assumed
SMILES: CC[C@H](C)[C@H](NC(=O)CNC)C(=O)N[C@H]1CSSC(C)(C)[C@@H](C(=O)N[C@H](C(=O)N2CCC[C@H]2C(=O)N[C@@H](CCC(=O)O)C(=O)O)[C@@H](C)CC)NC(=O)[C@H]([C@@H](C)CC)NC(=O)[C@@H]2C[C@@H]3CCCC[C@@H]3N2C(=O)[C@@H]2CCCN2C(=O)[C@H](CC(C)C)NC(=O)[C@H](CO)NC(=O)[C@H](CCCNC(=N)N)NC(=O)[C@H](CO)NC1=O

Target: T1, Recombinant human MASP1 enzyme (fragment corresponding to amino acids 297-699, C-terminal His Tag) (human, UniProt P48740 297-699)
T1 sequence: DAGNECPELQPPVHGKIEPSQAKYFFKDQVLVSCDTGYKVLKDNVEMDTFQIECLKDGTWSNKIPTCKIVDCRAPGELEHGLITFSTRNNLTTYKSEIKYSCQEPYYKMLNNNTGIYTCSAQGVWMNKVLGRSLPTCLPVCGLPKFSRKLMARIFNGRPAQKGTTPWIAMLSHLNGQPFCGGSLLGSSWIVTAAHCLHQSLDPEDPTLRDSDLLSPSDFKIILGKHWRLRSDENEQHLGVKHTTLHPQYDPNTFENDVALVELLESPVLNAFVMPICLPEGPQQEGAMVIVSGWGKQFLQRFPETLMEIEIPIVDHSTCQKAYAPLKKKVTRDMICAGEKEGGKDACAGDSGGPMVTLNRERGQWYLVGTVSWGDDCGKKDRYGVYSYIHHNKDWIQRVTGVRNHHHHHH
Assay: cell-based or functional assay

Binder | human MASP1 IC50 [nM]
B1 | 6
B2 | 6.1
B3 | 5.8
B4 | 5.8
B5 | 6.5
B6 | 5.8
B7 | 6.3
B8 | 6.6
B9 | 6.1
B10 | 6.5
B11 | 6.5
B12 | 6.4
B13 | 6.4
B14 | 6.2

Target: Recombinant human MASP2 enzyme (fragment corresponding to amino acids 297-686, C-terminal His Tag) (human, UniProt O00187 297-686)
Sequence (O00187 other isoform, or with tags, fused parts or gaps limits assumed): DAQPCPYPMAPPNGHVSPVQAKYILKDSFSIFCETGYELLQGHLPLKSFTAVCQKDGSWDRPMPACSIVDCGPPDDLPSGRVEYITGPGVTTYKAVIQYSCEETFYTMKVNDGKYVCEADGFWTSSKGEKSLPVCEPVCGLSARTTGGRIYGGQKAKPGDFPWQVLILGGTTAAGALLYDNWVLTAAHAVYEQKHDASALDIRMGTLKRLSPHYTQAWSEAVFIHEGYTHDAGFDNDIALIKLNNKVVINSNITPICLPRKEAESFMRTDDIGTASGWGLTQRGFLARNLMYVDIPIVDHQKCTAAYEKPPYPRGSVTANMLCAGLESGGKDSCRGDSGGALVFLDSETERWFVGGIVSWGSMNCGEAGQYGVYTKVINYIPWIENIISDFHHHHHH
Assay: cell-based or functional assay

Binder | human MASP2 IC50 [nM]
B1 | 740
B2 | 170
B3 | 61
B4 | 73
B5 | 140
B6 | 51
B7 | 220
B8 | 120
B9 | 27
B10 | 410
B11 | 13
B12 | 65
B13 | 16
B14 | 180
